Assay results reported in article PMC10850359, “A mediator of OsbZIP46 deactivation and degradation negatively regulates seed dormancy in rice”.

T1: His::ABI5 (Oryza sativa (rice), UniProt Q8RZ35 1-388)
T1 sequence: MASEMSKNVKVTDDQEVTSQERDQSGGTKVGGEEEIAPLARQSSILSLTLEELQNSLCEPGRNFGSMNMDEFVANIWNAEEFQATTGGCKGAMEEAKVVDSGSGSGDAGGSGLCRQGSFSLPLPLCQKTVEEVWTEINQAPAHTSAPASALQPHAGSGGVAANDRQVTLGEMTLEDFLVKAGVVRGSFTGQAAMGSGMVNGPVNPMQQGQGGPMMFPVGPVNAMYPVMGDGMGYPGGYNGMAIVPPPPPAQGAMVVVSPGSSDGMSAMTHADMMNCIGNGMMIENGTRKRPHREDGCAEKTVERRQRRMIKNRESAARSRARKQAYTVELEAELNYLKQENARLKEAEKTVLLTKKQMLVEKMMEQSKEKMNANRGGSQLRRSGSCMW

B1: EMSA-LEA3-bio (dsDNA)
DNA 1: GATGACTTGGCATGCTCACGTGGCATTTTTTTTGGTCTAA
DNA 2: TTAGACCAAAAAAAATGCCACGTGAGCATGCCAAGTCATC
B2: EMSA-EM1-bio (dsDNA)
DNA 1: CATAGCTTGCGCACGTACGTGTCGCGCTCCGGCGG
DNA 2: CCGCCGGAGCGCGACACGTACGTGCGCAAGCTATG

Biological target: T1, His::ABI5
Test: EMSA; Beyotime Chemiluminescent EMSA Kit; 2 ug His::ABI5, 1 uL biotin probe (1 ng), 25 C, 20 min; unlabeled probe (1 ng) as competitor; buffer, salt and pH not stated
Details: protein: recombinant; tags: His (pET28a); chain copies: 2; label: biotin; blunt

Binder | binding result
B1 | binds
B2 | binds
